# Laboratory results published in patent US10308973B1, “Real-time imaging method of NAPDH-dependent metabolic activity in cell and use thereof” (INDUSTRY FOUNDATION OF CHONNAM NATIONAL UNIVERSITY, priority 2018, dated 2019).
# B1: Wild type: wild-type metagenome-derived blue fluorescent protein, SEQ ID NO: 6, GenBank Accession No. AF485783 (protein)
# chain: MQNLNGKVAFVTGGSRGIGAAIVRRLAADGADIAFTYVSASSKNVATALVQELEAKGRRARAIQADSADPAQVRQAVEQAIVQLGPVDVLVNNAGIFLAGPLGEVTLDDYERTMNINVRAPFVAIQAAQASMPDGGRIINIGSCLAERAGRAGVTLYAASKSALLGMTRGLARDLGARGITANVVHPGPIDTDMNPADGERSGELVAVLSLPHYGEVRDIAGMVAFLAGPDGRYVTGASLAVDGGFAA
# modifications: BFP wild type Y157 w/o his-tag
# Assays:
# [1] = tested on: mBFP-transformed animal cells; test: NADPH imaging of mBFP-transformed animal cells treated with NADPH dehydrogenase inhibitors; format: cell-based; conditions: compared among the inhibitors of Table 3
# Procedure: The mBFP-transformed animal cells were cultured and treated with NADPH dehydrogenase inhibitors shown in Table 3, respectively, and the amount of change in NADPH was measured.
# [2] = tested on: recombinant animal cells (HeLa cell); test: Two-photon fluorescence imaging of mBFP-expressing animal cells after oxidant treatment; format: cell-based; conditions: 40 μM diamide; glucose-free medium; images every second
# Procedure: The recombinant animal cells produced in the Examples above were treated with diamide, which is an oxidant, to reduce the amount of NADPH in the cells, and the change in fluorescence was observed as follows. First, before observing the recombinant animal cells, the medium was replaced with a culture medium from which glucose was removed to prevent continuous overproduction of NADPH, and the cells were cultured for 1 hour and images thereof were observed. After treatment with 40 μM diamide, fluorescence images were taken every second using a real-time image measurement method using a two-photon microscopy.
# [3] = Benzaldehyde reductase activity of mBFP purified from transformed cells; format: biochemical; conditions: benzaldehyde reaction solution
# Procedure: The cultured cells were disrupted, recovered, and purified using the His-tag as follows.
# The cell supernatant disrupted with phosphate buffered saline (PBS) was injected into and passed through Ni-NTA Spin Columns (Qiagen), and washed with wash buffer (PBS, 10 mM imidazole). Then, the mBFP protein was recovered with the elution buffer (PBS, 100 mM imidazole).
# In order to confirm whether the mBFP protein had activity as a reductase through mutation, the reductase activity of mBFP was measured using the reaction solution for measuring the benzaldehyde reductase activity of Example 1 above.
# [4] = Enzyme activity (aldehyde dehydrogenase) of purified mutant mBFP; format: biochemical; conditions: purified protein
# Procedure: In order to measure benzaldehyde dehydrogenase activity, a reaction solution of pH 7.5 in which 100 mM Tris, 100 mM sodium chloride, 0.05% Triton X-100, […] and added at an amount of 10 μL per well containing 90 μL of cultured cells, and reacted for 10 minutes. The change in fluorescence value was measured by the fluorescence reader to measure the amount of NADPH consumed by the activity of mBFP mutant enzyme.
# In order to measure the enzyme activity of the short-chain dehydrogenase/reductase family (SDR family) of the purified mutant mBFP, a reaction solution (100 mM Tris, 100 mM sodium chloride, 0.05% Triton X-100, 0.5 mM benzaldehyde, 0.5 mM NADPH, pH 7.5) for measuring aldehyde dehydrogenase was added at an amount of 10 μL to each well to which the protein was added, and reacted for 10 minutes, and then the amount of reduced NADPH was measured using a fluorescent reader.
molecule,measurement,setting,value
"NC(=O)c1ccc(N)nc1 [6-ANA, 6-Aminonicotinamide]",difference of fluorescence intensity due to mBFP after inhibitor treatment,[1],the largest
CN(C)C(=O)/N=N/C(=O)N(C)C [diamide],fluorescence intensity after oxidant treatment,[2],rapidly decreased
"C[C@]12CC[C@H](O)CC1=CC[C@@H]1[C@@H]2CC[C@]2(C)C(=O)CC[C@@H]12 [DHEA, Dehydroepiandrosterone]",difference of fluorescence intensity due to mBFP after inhibitor treatment,[1],the largest
B1,reductase activity (in words),[3],exhibited the reductase activity
same,"Enzyme activity of mutant mBFP, Acetaldehyde",[4]; substrate acetaldehyde,10.34 ± 0.24 U mg^−1
same,"Enzyme activity of mutant mBFP, Benzaldehyde",[4]; substrate benzaldehyde,6.41 ± 0.34 U mg^−1
same,"Enzyme activity of mutant mBFP, Hexanal",[4]; substrate hexanal,4.34 ± 0.14 U mg^−1
same,"Enzyme activity of mutant mBFP, Pivaldehyde",[4]; substrate pivaldehyde,14.43 ± 0.68 U mg^−1
